# Laboratory results: article PMC2715080 (The Journal of Experimental Medicine, 2009)
# Like-named read-outs stand apart in the source and are kept apart here.
# T1: B7-H6-Fc (extracellular domain of B7-H6, aa 1-267, fused to effector-negative mouse IgG2a Fc) (human, UniProt Q68D85 25-267)
# T1 sequence (looked up): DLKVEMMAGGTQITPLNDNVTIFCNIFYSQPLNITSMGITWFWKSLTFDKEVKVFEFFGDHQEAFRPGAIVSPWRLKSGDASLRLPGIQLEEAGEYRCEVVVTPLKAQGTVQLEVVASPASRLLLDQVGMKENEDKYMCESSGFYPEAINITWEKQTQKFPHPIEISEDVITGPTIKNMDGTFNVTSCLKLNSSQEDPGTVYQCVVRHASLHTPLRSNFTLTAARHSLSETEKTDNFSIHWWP
# B1: NKp30-hFc (soluble recombinant NKp30 fused to mutated human IgG1) (Fc fusion, UniProt O14931 19-135, looked up)
# chain: LWVSQPPEIRTLEGSSAFLPCSFNASQGRLAIGSVTWFRDEVVPGKEVRNGTPEFRGRLAPLASSRFLHDHQAELHIRDVRGHDASIYVCRVEVLGLGVGTGNGTRLVVEKEHPQLG
# Experiments:
# [1] = biological target: T1, B7-H6-Fc (extracellular domain of …); assay: SPR
# [2] = biological target: T1, B7-H6-Fc (extracellular domain of …); assay: SPR; remark: listed apart in the source
binder,measurement,setting,value
B1,binding result,[1],binds
same,binding result,[2],binds
